{
  "source": "the DeepSol protein solubility set",
  "data": [
    {"test": "soluble on expression in E. coli; label from the status in PepcDB or PDB records", "values": [
      {"sequence": "SDENNGLLLLELNPPNPWDLQPRSPEELAFGEVQITYLTHACMDLKLGDKRMVFDPWLIGPAFARGWWLLHEPPSDWLERLCQADLIYISHLHSDHLSYPTLKKLAGRRPDIPIYVGNTERPVFWNLNQSGVQLTNINVVPFGIWQQVDKNLRFMILMDGVHPEMDTCIIVEYKGHKILNIVDCTRPNGGRLPMKVALMMSDFAGGASGFPMTFSGGKFTEEWKAQFIKTERKKLLNYKARLVKNLQPRIYCPFAGYFVESHPSDKYIKETNTKNDPNELNNLIKKNSDVITWTPRPGATLDLGRMLKDRTDSKGIIEPPEGTKIYKDSWDFEPYLEILNAALGDEIFLHSSWIKEYFTWAGFKDYNLVVRMIETDEDFNPFPGGYDYLVDFLDLSFPKERPQREHPYEEIHSRVDVIRHVVKNGLLWDELYIGFQTRLQRDPDIYHHLFWNHFQIKLPLTPPNWKSFLMCCEQNGPVILQECKTT", "soluble on expression in E. coli": "soluble"},
      {"sequence": "SDKDSQGLLDSSLMASGTASRSEDEESLAGQKRASSQALGTIPKRRSSSRFIKRKKFDDELVESSLAKSSTRVKGAGGVESGRCSGSEPSSSEKKKVSKAPSTPVPPSPAPTPGLTKRVKKSKQPLQVTKDLGRWKPADDLLLINAVLQTNDLTSVHLGVKFSCRFTLREVQERWYALLYDPVISKLACQAMRQLHPEAIAAIQSKALFSKAEEQLLSKVGSSSQPTLETFQDLLHTHPDAFYLARTAKALQAHWQLMKQYYLLEDQTVQPLPKGDQVLNFSDAEDLIDDSKLKDMRDEVLEHELTVADRRQKREIRQLEQELHKWQVLVDSITGMGSPDFDNQTLAVLRGRMVRYLMRSREITLGRATKDNQIDVDLSLEGPAWKISRKQGVIKLKNNGDFFIANEGRRPIYIDGRPVLCGSKWRLSNNSVVEIASLRFVFLINQDLIALIRAEAAKITPQ", "soluble on expression in E. coli": "soluble"},
      {"sequence": "SDLFTDGDIFQDIVDAACKRRVPVYIILDEGGVKYFLEMCQGLELADFRIRNIRVRSVTGIGFYMPMGKIKGTLSSKFLMVDGDKVATGSFSFTWSSSYVDRNLLLLLTGQNMEPFDIEFRELYAISEEVNLHQHLGLAGRIGLNYSSTVARKLINPKYALVAGTRRPPGEMMRWAARQQREAGGNVEGQEEGSGGGESARRLESFLNDLVTVEQILPTVEPISPRLQRPTNGRPVSHAHTDAKHRSREALPQNGKGEAANGEATPAKEGKRFSSRLFSRRVKRPAVPSSMASSPSTETFADVEFPLGKRHNEGSNANISGKGITKASNCVIS", "soluble on expression in E. coli": "soluble"},
      {"sequence": "SDQEEGLKALDNIVTQFNAYEDFLDSQITTVDLYYLEDETLARQLVELGYRGTGERVKREDFEARKAAIEIARLAERAQQKTLTSAGKDLQDNFLTALAMREEDNRSGKLSSVIFIRDRNSHGQEISGYIDYAHRLKTEDFEVYFTGKKRLLPRPTDISFYNWDADIAVSNSSPNYQVIADNPEGLLFRYKRDRKILNVDPKAQPGDNSTRITILTELYIQAVIFDHISRRKT", "soluble on expression in E. coli": "soluble"},
      {"sequence": "SEESRESPAEHGYYMPAEWDSHAQTWIGWPERQDNWRHNALPAQRVFAGVAKAISKFEPVTVCASPAQWENARKQLPEDIRVVEMSMNDSWFRDSGPTFIVRKRPVKLSSLNRNIAGIDWNFNAWGGANDGCYNDWSHDLLVSRKILALERIPRFQHSMILEGGSIHVDGEGTCLVTEECLLNKNRNPHMSKEQIEEELKKYLGVQSFIWLPRGLYGDEDTNGHIDNMCCFARPGVVLLSWTDDETDPQYERSVEALSVLSNSIDARGRKIQVIKLYIPEPLYMTEEESSGITQDGEAIPRLAGTRLAASYVNFYIANGGIIAPQFGDPIRDKEAIRVLSDTFPHHSVVGIENAREIVLAGGNIHCITQQQPAEPTSVAENGH", "soluble on expression in E. coli": "soluble"},
      {"sequence": "SEEYHRHCDEVGFNAEEAHNIVKECVDGVLGGEDYNHNNINQWTASIVEQSLTHLVKLGKAYKYIVTCAVVQKSAYGFHTASSCFWDTTSDGTCTVRWENRTMNCIVNVFAIAIVL", "soluble on expression in E. coli": "soluble"},
      {"sequence": "SEKADEKTYDLRDPSQLVALFTENENEDFIKISLSKYIESLIQSHNMASYNIVFLYDETRSISRYHSNQIYEAASSATDKKDILLILHSGGGQIEPAYLISKTCKSLTKKKFVVGIPRRAKSAATLISLGADEIHMGLMSELGPIDPQIGGYPALGLSNALNTLAGLACRFPDSADMFAKYLTDNLNLKDLGYFERVSESASQYAERLLAGKKFPAPSTAQSLANHFVNHYKDHGFVIDSDEATNLLGSNIIKQNTAEYLFANELYKFLDFASF", "soluble on expression in E. coli": "not soluble"},
      {"sequence": "SERRLGVRAWVKENRGSFQPPVCNKLMHQEQLKVMFIGGPNTRKDYHIEEGEEVFYQLEGDMVLRVLEQGKHRDVVIRQGEIFLLPARVPHSPQRFANTVGLVVERRRLETELDGLRYYVGDTMDVLFEKWFYCKDLGTQLAPIIQEFFSSEQYRTGKPIPDQLLKEPPFPLSTRSIMEPMSLDAWLDSHHRELQAGTPLSLFGDTYETQVIAYGQGSSEGLRQNVDVWLWQLEGSSVVTMGGRRLSLAPDDSLLVLAGTSYAWERTQGSVALSVTQDPACKKPLG", "soluble on expression in E. coli": "soluble"},
      {"sequence": "SFDRALKPFLKSCHFQTLRDPVDQCVSYHLRSVTEKFPEVHMEVIADYEVHPNRRPKILAQTAAHVAGAAYYYQRQDVDADPWGTQHIAGVCIHPRFGGWFAIRGVMLLPGIEVPNLPPRKPPDCVPTRAGRITLLEGFNFHWRDWTYRDAVTPEERYSEEQKIYFSTPPAQRLALLGLAQPSEHPSTTSELPLSLLTKPQNSRRARSWLSPSVSPPVSPGP", "soluble on expression in E. coli": "soluble"},
      {"sequence": "SFKADLGTIGIQLHTTYSRRIRKVKVMDNRKEPPFFNEDNVGPFYFKLPFYDPMELFIETLTGTCFELRVSPFEAVISVKGKIQRLEGIPICQQHLIWNNMELEDDYCLNDYNISEGCTLKLVLAMRGGPISTRKVPVEDPLRELAEYMDSSRDEVWEKTSCNKQVTFLVYREGDQLNFFRVVDRGDGTLTPLSESLSGGSVYNLYTDEDEETEPSPSGQQIIENSITMNKMKLLKAKMENMNLSKKVKPLAVRQAFL", "soluble on expression in E. coli": "soluble"},
      {"sequence": "SFQEQTTKSRDVNSFQIPLRDGVRELLPEDASRNRASIKSPVDIWIGGENMTALNGIVDGGRKFEAGQEFQINTFGSVNYWVSDEEIRVFKEYSARAKYAQNEGRTALEANNVPFFDIDVPPELDGVPFSLKARVRHKSKGVDGLGDYTSISVKPAFYITEGDETTDTLIKYTSYGSTGSHSGYDFDDNTLDVMVTLSAGVHRVFPVETELDYDAVQEVQHDWYDESFTTFIEVYSDDPLLTVKGYAQILMERT", "soluble on expression in E. coli": "soluble"},
      {"sequence": "SGIGTGHTSMNKGGKDVTLLELSVEKRRWRINMETSKIILEKMQSDDVLDGNRERSNEREGRDSLSEKLKSKQNLKDEEKLRYIKTGKSIQVEGTVRAKALRWVQ", "soluble on expression in E. coli": "soluble"},
      {"sequence": "SGSRDHLFKVLVVGDAAVGKTSLVQRYSQDSFSKHYKSTVGVDFALKVLQWSDYEIVRLQLWDIAGQERFTSMTRLYYRDASACVIMFDVTNATTFSNSQRWKQDLDSKLTLPNGEPVPCLLLANKCDLSPWAVSRDQIDRFSKENGFTGWTETSVKENKNINEAMRVLIEKMMRNSTEDIMSLSTQGDYINLQTKSSSWSCC", "soluble on expression in E. coli": "soluble"},
      {"sequence": "SHMQSRELKTVSADCKKEAIEKCAQWVVRDCRPFSAVSGSGFIDMIKFFIKVKAEYGEHVNVEELLPSPITLSRKVTSDAKEKKALIGREIKSAVEKDGASATIDLWTDNYIKRNFLGVTLHYHENNELRDLILGLKSLDFERSTAENIYKKLKAIFSQFNVEDLSSIKFVTDRGANVVKSLANNIRINCSSHLLSNVLENSFEETPELNMPILACKNIVKYFKKANLQHRLRSSLKSECPTRWNSTYTMLRSILDNWESVIQILSEAGETQRIVHINKSIIQTMVNILDGFERIFKELQTCSSPSLCFVVPSILKVKEICSPDVGDVADIAKLKVNIIKNVRIIWEENLSIWHYTAFFFYPPALHMQQEKVAQIKEFCLSKMEDLELINRMSSFNELSATQLNQSDSNSHNSIDLTSHSKDISTTSFFFPQLTQNNSREPPVCPSDEFEFYRKEIVILSEDFKVMEWWNLNSKKYPKLSKLALSLLSIPASSAASERTFSLAGNIITEKRNRIGQQTVDSLLFLNSFYKNFCK", "soluble on expression in E. coli": "soluble"},
      {"sequence": "SILELAEYTYFPPTLMASLILKNCDFSRKSINWLFKHLDCIENRRLRKEVRKALNADYFFSPRAHEMQCRKGEMGEEIVRKWLDDREIAYCTEAEIRAKGDGKTPDFVLSNPIFIEDHMVSWIESKALFGDDFEHKHYAKKQFREYADIFGEGMVVYWYGFLEDLSSEDEGYLIKDYRFFEGYQEQTDEL", "soluble on expression in E. coli": "soluble"},
      {"sequence": "SISTHESQKLREYYRLLNLDEGCSVDDVRESFHKLARQYHPDSGSSDADSATFIKIEEAYRNVLSHAIKRMHAGQDKAEDAAEDEEEGKFKYNTPQHRHYLSFEGVGFGTPSQREKQYRQFRADRATEQVMEYQRQKLQREFFANSITVKDVRQSKQQKITQAIERLVEDLIQESMAKGDFDNLSGKGKPLKKFSGCSYIDPMTHNLNRILIDNGYQPEWILMQKEIKDTIEQLREALLMSRKKLGNPLSPTEQKQWAQVCEQFQEKIRKLNKRINDFNLIVPILTRQKVHFDAQKEIIRVQEMYGAFVEANEVTEENQTDVSQGEESKTPRVKAGFLNWLNLWKSIKI", "soluble on expression in E. coli": "soluble"},
      {"sequence": "SKDLSVSLQANFTYNKNKMVYVDEPEYPTIWKSETGKPYSRITGYIAEGLFKSQEEIDNSPAQNLGSTPKVGDIKYRDLNGDGIIDSDDQTMISKYGSTPRLQYGFGGTVNYKKFDFGVFFSGSALRSIMTNGIDPFQEGIAVGNRNVLKYIADNYWSEEKQNWDAKYPRLGLLATDVANNTVNSSYWLRNGSFLRLKNVEVGYKIPYGRIFVSAANLFTFSPFDLWDPELSSWNSYPMQKTVNVGIQLQF", "soluble on expression in E. coli": "not soluble"},
      {"sequence": "SKQPDKQRKSQRRAPLHERHKQVRATLSADLREEYGQRNVRVNAGDTVEVLRGDFAGEEGEVINVDLDKAVIHVEDVTLEKTDGEEVPRPLDTSNVRVTDLDLEDEKREARLESEDDSA", "soluble on expression in E. coli": "soluble"},
      {"sequence": "SLAQLDKNDPARGVLAAIAANASKIAEYDPRVRADEYDSVHQMRVATRELRSHLQTFEGILGGEDYLNLEKELKVLANILGRARDAEVVEERLSNLINTEVGDSIEEETKKELLEDLGAEYRREHERVVRALDNDRYTDLLQALENLLVDPPLITEVEEPEATEAPESAETTESTDVSEATEEADAEAESVEEATEQEESADAPESADLDALDEEYSPGSQAPVEEPKEPKKVDAALVLLEHLDKAHVKLVKLEKKARSQWDDLSIPMLEREENFHNLRKAAKKLRYSAEAVGKATTVETKKLYKACSGLQSVLGDYQDAITSRNELLRRAQVARRQGRDTFAYGILYQHEQTLSREYLTGYSDAFKSVEKAYAKLAEDTAKRSKKNKRK", "soluble on expression in E. coli": "soluble"},
      {"sequence": "SLARELMRTQKEIFALILDFAKRTDSIRAVTLEGSRANPNIKQDKFCDYDISFFLNAKNLESFKNNEEWLKIFGNILMLQKPESMELYPPDLREGWFSFLVLFDDGVRIDLSLIPLADIEWYKDNERLMRVLLDKDNQFMPINEPSDSAFFIKPLTKQSFLDCCNELYWLYVCTHKDILRGELLLANAHLAMMREGLLILLSWRVALRQNNFAFSLGKEYKFLPHFLEPKERKTLYKCYKLGDLKQAQKTLKIMEKFFAKNARELIKVHFKDLHTLPYAKVAKQYVRILKHKIV", "soluble on expression in E. coli": "soluble"},
      {"sequence": "SLARSPSVSAGTRPHAGEHTDTSPISSAVSAPSPSSLPLVFSPQPSVSSSSLPLSSSSLARVSSSPQPSASSASLPLSSSRQSGEALGSSGAASSESSRERQGKLRLRHPRQRKPFLLQVLHAEHRCHNPRELARVQRAGGSIFAGRVGGVLEPSRSVGDFDVKDAQPPGVLIATPEVCRVKVRKPTLVLLGTDGVWDMLCSADVLACVKKVTQFWQLLLAAFRERMEELQEEATEKQENEKERGEGDQVRESSGNGKG", "soluble on expression in E. coli": "soluble"}
    ]}
  ]
}
